Eight molecules from article PMC9555727 (Chemical Science, 2022) can be followed below.

Where “and” joins values, the source holds several entries; their conditions need not be identical. Equal values may be shown once. Read-outs that look alike come from different tables or passages of the source.

The stoichiometry N is a count of units in the complex or per binding partner.

For data set [1], the target named is Can (E. coli BL21 (DE3)). Description: not stated; summary of the solution experiments on the 17 proteins (native MS, MP, SEC, SAXS); which method gave the stated form is not given; details in Table S2, Fig. 5A and Fig. 6.
The target of data set [2] is FabG (3-oxoacyl-[acyl-carrier-protein] reductase) from E. coli-DE3 (E. coli BL21 (DE3)). Kind of data set: SEC; 30 μg protein on Superdex 200 Increase 10/300 GL in PBS pH 7.4; MM from a standard curve of elution volumes. A general note: SEC sorts molecules by how far they enter the pores of the column.
The target is the same in data set [3]. Kind of data set: SAXS; EMBL P12 beamline, 20 °C, four concentrations between about 10 and 90 μM; MM from I(0) and equilibrium fit with OLIGOMER on PDB structures.
For data set [4] the target is unchanged. Kind of data set: mass photometry; protein stocks diluted in PBS pH 7.4 to nanomolar concentrations (~100 nM) immediately before measurement; detection threshold ~40 kDa.
Data set [5] shares this target. Kind of data set: SAXS; EMBL P12 beamline, 20 °C, four concentrations between about 10 and 90 μM; MM from I(0) and equilibrium fit with OLIGOMER on PDB structures. This is another data set of the same source.
Data set [6] has the same target. Description: non-reducing SDS-PAGE; 10 μg protein without β-mercaptoethanol, heated, 4-20% gel, Coomassie stain; shows inter-protein disulfide bridges.
The target is the same in data set [7]. Kind of data set: native MS; online buffer exchange MS; proteins diluted in 50 mM HEPES, 50 mM NaCl pH 7.4 (FabG: 25 mM tricine, 50 mM NaCl pH 8.5), overnight at 4 °C, exchanged online to 200 mM ammonium acetate pH 6.8; range of concentrations 40-0.15 μM before dilution; DeoC: apparent affinity, dimer to monomers, fit of eqn (1).
For data set [8] the target is unchanged. Kind of data set: native MS; as a1, FabG^DE3 in the presence of DTT; 2.5-40 μM.
Data set [9] concerns the target IspD (E. coli BL21 (DE3)). Description: not stated; summary of the solution experiments on the 17 proteins (native MS, MP, SEC, SAXS); which method gave the stated form is not given; details in Table S2, Fig. 5A and Fig. 6.
Data set [10] deals with NadK (E. coli BL21 (DE3)). Kind of data set: SEC; 30 μg protein on Superdex 200 Increase 10/300 GL in PBS pH 7.4; MM from a standard curve of elution volumes.
The target of data set [11] is NadK (E. coli BL21 (DE3)). Kind of data set: SAXS; EMBL P12 beamline, 20 °C, four concentrations between about 10 and 90 μM; MM from I(0) and equilibrium fit with OLIGOMER on PDB structures.
For data set [12], the target named is NadK (E. coli BL21 (DE3)). Kind of data set: native MS; online buffer exchange MS; proteins diluted in 50 mM HEPES, 50 mM NaCl pH 7.4 (FabG: 25 mM tricine, 50 mM NaCl pH 8.5), overnight at 4 °C, exchanged online to 200 mM ammonium acetate pH 6.8; range of concentrations 40-0.15 μM before dilution; DeoC: apparent affinity, dimer to monomers, fit of eqn (1).
In data set [13] the target is SpeB (E. coli BL21 (DE3)). Kind of data set: not stated; summary of the solution experiments on the 17 proteins (native MS, MP, SEC, SAXS); which method gave the stated form is not given; details in Table S2, Fig. 5A and Fig. 6.
The target of data set [14] is Superoxide dismutase (SodA) (E. coli BL21 (DE3)). Kind of data set: SEC; 30 μg protein on Superdex 200 Increase 10/300 GL in PBS pH 7.4; MM from a standard curve of elution volumes.
The target is the same in data set [15]. Kind of data set: SAXS; EMBL P12 beamline, 20 °C, four concentrations between about 10 and 90 μM; MM from I(0) and equilibrium fit with OLIGOMER on PDB structures.
Data set [16] has the same target. Kind of data set: mass photometry; protein stocks diluted in PBS pH 7.4 to nanomolar concentrations (~100 nM) immediately before measurement; detection threshold ~40 kDa.
For data set [17] the target is unchanged. Kind of data set: native MS; online buffer exchange MS; proteins diluted in 50 mM HEPES, 50 mM NaCl pH 7.4 (FabG: 25 mM tricine, 50 mM NaCl pH 8.5), overnight at 4 °C, exchanged online to 200 mM ammonium acetate pH 6.8; range of concentrations 40-0.15 μM before dilution; DeoC: apparent affinity, dimer to monomers, fit of eqn (1).
Data set [18] deals with Upp (E. coli BL21 (DE3)). Description: not stated; summary of the solution experiments on the 17 proteins (native MS, MP, SEC, SAXS); which method gave the stated form is not given; details in Table S2, Fig. 5A and Fig. 6.
Data set [19] concerns the target Upp (E. coli BL21 (DE3)). Description: mass photometry; protein stocks diluted in PBS pH 7.4 to nanomolar concentrations (~100 nM) immediately before measurement; detection threshold ~40 kDa.
Data set [20] concerns the molecule itself. Kind of data set: native MS; online buffer exchange MS; proteins diluted in 50 mM HEPES, 50 mM NaCl pH 7.4 (FabG: 25 mM tricine, 50 mM NaCl pH 8.5), overnight at 4 °C, exchanged online to 200 mM ammonium acetate pH 6.8; range of concentrations 40-0.15 μM before dilution; DeoC: apparent affinity, dimer to monomers, fit of eqn (1).
Data set [21] deals with the molecule itself. Kind of data set: SEC; 30 μg protein on Superdex 200 Increase 10/300 GL in PBS pH 7.4; MM from a standard curve of elution volumes.

Molecule Can (enzyme) showed a stoichiometry N in data set [1] of 4.

On to “FabG (3-oxoacyl-[acyl-carrier-protein] reductase) from E. coli-DE3 (enzyme)”, for which the stoichiometry N in data set [2] was 4 and 2; in data set [3], 6 and 2 and 4; in [4], 2 and 4 and 6; in data set [7] it was 6; in data set [8] it was 2 and 4. In addition, the SAXS MM from I(0) divided by the monomer's mass in [3] was 3.5; in data set [5], 3.7. In [6], this molecule gave a percent in an inter-protein disulfide bonded dimer of 50%.

As to IspD (enzyme), the stoichiometry N in data set [9] is 2 and 4.

NadK (enzyme) yielded a stoichiometry N in [10] of 2.7. In [11], this molecule displayed a subunit average from SAXS I(0) at 8 μM of 2.37 and a subunit average from SAXS I(0) at 61 μM of 2.67. Besides, in data set [12], the percent dimer at ∼1 μM was determined as 56%, the percent dimer at ∼40 μM came to 23%, the percent monomer at ∼1 μM stood at 12% and the percent monomer at ∼40 μM came out at 2%. Also, in [12], the percent tetramer at ∼1 μM is 32%; the percent tetramer at ∼40 μM stood at 75%; the stoichiometry N was 2 and 4.

On to SpeB (enzyme), for which the stoichiometry N in data set [13] came out at 6.

Take Superoxide dismutase (SodA) (enzyme): the stoichiometry N in [14], in [15], in data set [16] and in [17] was 2 in each case.

For Upp (enzyme), the stoichiometry N is 2 and 4 and 6 in data set [18]; 2 in data set [19].

B1: FabG (3-oxoacyl-[acyl-carrier-protein] reductase) from E. coli-K12 (enzyme, E. coli K12)
chain: MNFEGKIALVTGASRGIGRAIAETLAARGAKVIGTATSENGAQAISDYLGANGKGLMLNVTDPASIESVLEKIRAEFGEVDILVNNAGITRDNLLMRMKDEEWNDIIETNLSSVFRLSKAVMRAMMKKRHGRIITIGSVVGTMGNGGQANYAAAKAGLIGFSKSLAREVASRGITVNVVAPGFIETDMTRALSDDQRAGILAQVPAGRLGGAQEIANAVAFLASDEAAYITGETLHVNGGMYMV
notes: FabG, 3-oxoacyl-[acyl-carrier-protein] reductase of E. coli K12, Arg at position 167; probably the same vector, cleaved His-bdSumo tag and added N-terminal alanine as for the other proteins; also called FabG^K12; source: E. coli, purified
On to B1, for which the “stoichiometry N” value in data set [20] is 4; in data set [21] it was 2.
